Like-named read-outs stand apart in the source and are kept apart here. Numbered stars: 1 amine (or outer) side, 2 acyl side, 3 side chain; on linkers, the order of the positions; unused ones are H or OH. Square brackets hold non-standard residues; d marks the D form. Ends that are not written are not given here. * marks the point of attachment. CO(CH2CH2O)13CH2CH2CO = O=C(CCOCCOCCOCCOCCOCCOCCOCCOCCOCCOCCOCCOCCOCCC(=O)[*:2])[*:1]; 5FAM = O=C1OC2(c3ccc(O)cc3Oc3cc(O)ccc32)c2ccc(C(=O)*)cc21; NMeE = CN[C@@H](CCC(=O)O)C(=O)O
B1: SIESDV (6) (peptide)
peptide: SIESDV
notes: N-terminal truncation of the NR2B peptide (1)
B2: SSIESDV (5) (peptide)
peptide: SSIESDV
notes: as for B1
B3: (GE[N-Cyclohexylethyl]TDV)2PEG12 (75) (peptide)
peptide: {CO(CH2CH2O)13CH2CH2CO}-GETDV-OH
modifications: not fully specified (residue 2); printed as (GE[N-Cyclohexylethyl]TDV)2PEG12 (75); also: dimer: two peptides N-terminally joined via PEG12-diacid
notes: Dimeric ligand; also called (GE[R]TDV)2-PEG12 (75)
B4: HIS-PDZ3 protein (PSD-95 PDZ3, residues 309-401, with tag MHHHHHPRGS) (other)
chain: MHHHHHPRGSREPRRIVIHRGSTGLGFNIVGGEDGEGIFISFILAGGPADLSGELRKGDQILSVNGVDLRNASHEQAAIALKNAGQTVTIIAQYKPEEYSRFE
B5: 5-FAM/Cy5-NR2B (peptide)
peptide: 5FAM-KSGYEKLSSIESDV
modifications: also: entry also covers Cy5-NR2B: CSG linker, Cy5-maleimide on Cys
notes: Kd said to be independent of the fluorophore; also called 5-FAM-NR2B; 5-Fam-NR2B peptide
B6: (IETAV)2PEG4 (83) (peptide)
peptide: IETAV
modifications: also: dimer: two peptides joined at N-terminal amines by amide bonds through a PEG4-diacid linker
notes: Dimeric ligand

What was measured:
[1] = molecular target: T1, HIS-PDZ1 protein (PSD-95 PDZ1, residues 61-151, with tag …) (human, UniProt P78352 61-151); test: FP competition: displaces fluorescent NR2B probe (50 nM) from PDZ1 (20 µM)
T1 construct: expressed in E. coli

[2] = molecular target: T2, HIS-PDZ2 protein (PSD-95 PDZ2, residues 155-249, with tag …) (human, UniProt P78352 155-249); test: FP competition: displaces fluorescent NR2B probe (50 nM) from PDZ2 (3 µM)
[3] = molecular target: T2, HIS-PDZ2 protein (PSD-95 PDZ2, residues …); test: FP competition, fluorescent NR2B probe
[4] = molecular target: T3, HIS-PDZ1-2 protein (PSD-95 PDZ1-2 tandem, residues 61-249, with tag …) (human, UniProt P78352 61-249); test: FP competition: displaces fluorescent NR2B probe (50 nM) from PDZ1-2 (3 µM)
[5] = molecular target: T2, HIS-PDZ2 protein (PSD-95 PDZ2, residues …); test: ITC
[6] = molecular target: T3, HIS-PDZ1-2 protein (PSD-95 PDZ1-2 …); test: FP competition: displaces fluorescent NR2B probe (50 nM) from PDZ1-2 (3 µM); remark: listed apart in the source
[7] = molecular target: T3, HIS-PDZ1-2 protein (PSD-95 PDZ1-2 …); test: FP competition, fluorescent NR2B probe
[8] = molecular target: B4; test: FP competition, fluorescent CRIPT probe
[9] = molecular target: B4; test: FP competition, fluorescent CRIPT probe; remark: listed apart in the source
[10] = molecular target: T2, HIS-PDZ2 protein (PSD-95 PDZ2, residues …); test: FP competition assay (Ki), fluorescent NR2B probe displaced from the PDZ domain; bar chart
[11] = molecular target: T1, HIS-PDZ1 protein (PSD-95 PDZ1, residues …); test: as above
[12] = molecular target: T2, HIS-PDZ2 protein (PSD-95 PDZ2, residues …); test: FP competition, fluorescent NR2B probe; remark: listed apart in the source
[13] = molecular target: T1, HIS-PDZ1 protein (PSD-95 PDZ1, residues …); test: FP competition, fluorescent NR2B probe
[14] = molecular target: B4; test: FP competition: fluorescent CRIPT probe (50 nM) on PDZ3 (5 µM)
Tat-NR2B (3) = molecular target: T4, Tat-NR2B (3); test: FP competition, fluorescent CRIPT probe
T4 construct: also called Tat-N2B (3); 20-mer Tat-NR2B peptide

[15] = molecular target: T2, HIS-PDZ2 protein (PSD-95 PDZ2, residues …); test: FP competition, fluorescent NR2B probe; remark: listed apart in the source
[16] = molecular target: T1, HIS-PDZ1 protein (PSD-95 PDZ1, residues …); test: FP competition, fluorescent NR2B probe; remark: listed apart in the source
[17] = molecular target: T3, HIS-PDZ1-2 protein (PSD-95 PDZ1-2 …); test: FP competition, fluorescent NR2B probe; exact Ki not calculable
[18] = molecular target: T3, HIS-PDZ1-2 protein (PSD-95 PDZ1-2 …); test: ITC
[19] = molecular target: T3, HIS-PDZ1-2 protein (PSD-95 PDZ1-2 …); test: FP saturation binding
[20] = molecular target: T2, HIS-PDZ2 protein (PSD-95 PDZ2, residues …); test: FP saturation binding
[21] = molecular target: T1, HIS-PDZ1 protein (PSD-95 PDZ1, residues …); test: FP saturation binding
[22] = molecular target: B4; test: FP saturation binding
[23] = molecular target: T3, HIS-PDZ1-2 protein (PSD-95 PDZ1-2 …); test: FP competition, fluorescent NR2B probe; remark: listed apart in the source
[24] = molecular target: T3, HIS-PDZ1-2 protein (PSD-95 PDZ1-2 …); test: ITC / FP
[25] = molecular target: T3, HIS-PDZ1-2 protein (PSD-95 PDZ1-2 …); test: ITC; dimeric ligand, two IETAV joined by a PEG4 linker (X = 4)
[26] = molecular target: T3, HIS-PDZ1-2 protein (PSD-95 PDZ1-2 …); test: FP competition, fluorescent NR2B probe; exact Ki not calculable; remark: listed apart in the source
[27] = molecular target: T5, HIS-PDZ1-2 with tryptophan instead of isoleucine (PDZ1-2 I195W) (human, UniProt P78352 61-249); test: stopped-flow fluorimetry, Trp fluorescence; stopped-flow fluorescence titration, not FP
T5 construct: Used in the stopped-flow fluorimetry of ligand 74; also called PDZ1-21195W (so in the source)

[28] = molecular target: T2, HIS-PDZ2 protein (PSD-95 PDZ2, residues …); test: FP competition, alanine scan

With IESDV (also called pentapeptide (7)) [IESDV (7)] the “IC50 (read off the curve)” value [1] was ~50 µM, the “IC50 (read off the curve)” value [2] was ~9 µM and the Ki [3] was 3.1 µM. The “IC50 (read off the curve)” value [4] was ~9 µM, the Kd [5] was 2.6 µM and the “IC50 (read off the curve)” value [6] was ~10 µM.

In the case of KSGYEKLSSIESDV (also called NR2B peptide (1); NR2B WT) [NR2B (1), non-fluorescent NR2B peptide KSG-YEKLSSIESDV], the Ki [7] is reported as 6.8 µM and the binding result [8] is reported as “no binding”.

In the case of KQTSV [truncated CRIPT pentapeptide (KQTSV)], the “fold reduction in Ki (so in the source) compared with CRIPT peptide (2)” value [9] is reported as 14 fold.

B1: binds [10]; binds [11].

B2: binds [10]; binds [11].

With B3 the Ki [7] was 5.5 µM, the Ki [12] was 55 µM and the Ki [13] was 83 µM. B3: no binding (tested: log(Conc/M) about -3.6) [14].

B4: no binding (Tat-NR2B (3)).

[NMeE]TAV (also called N-Methyl-ETAV (40)) [EMeTAV (40)] was tested, and the Ki [9] was ~79 µM, the Ki [15] was 8.9 µM and the Ki [16] was 11 µM.

{PEG4‑diacid}-IESDV (also: dimer: two peptides N-terminally joined via PEG4-diacid, Dimeric ligand) [(IESDV)2PEG4 (78)] showed a Ki [3] of 2.7 µM, a Ki [17] of ~0.1 µM and a Kd [18] of 0.032 µM. It also gave a Kd [5] of 3.3 µM.

With B5 the Kd [19] was 1.7 µM, the Kd [20] was 3 µM and the Kd [21] was 20 µM. B5: no binding [22].

Work on 5FAM-KSGLDTKNYKQTSV (also: entry also covers Cy5-CRIPT: CSG linker, Cy5-maleimide on Cys, also called 5-FAM-CRIPT) [5-FAM/Cy5-CRIPT] yielded a Kd [22] of 3.5 µM.

In the case of {PEG0‑diacid}-IESDV (also: dimer: two peptides N-terminally joined via PEG0-diacid, Dimeric ligand) [Compound 81 (IESDV dimerized with PEG0-diacid)], the Ki [23] is reported as 1.5 µM, the Ki [3] is reported as 3.1 µM and the “IC50 (read off the curve)” value [4] is reported as ~5 µM. For the same binder, the Kd [18] was 1.1 µM.

B6 was tested, and the “fold increase in affinity compared to monomeric IETAV (82)” value [24] was 176 fold, the Ki [3] was 1.1 µM and the Ki [17] was ~0.1 µM. The Kd [25] was 0.011 µM.

Binder {PEG12‑diacid}-IESDV (also: dimer: two peptides N-terminally joined via PEG12-diacid, Dimeric ligand) [(IESDV)2PEG12 (74)] has a Ki [3] of 3.1 µM, a Ki [26] of ~0.1 µM and a Ki [12] of 2.8 µM. The Ki [17] was ~0.1 µM, the Kd [18] was 0.09 µM and the Ki [27] was ~0.1 µM. {PEG12‑diacid}-IESDV (also: dimer: two peptides N-terminally joined via PEG12-diacid, Dimeric ligand) [(IESDV)2PEG12 (74)]: no binding (tested: log(Conc/M) about -3.3) [14].

IEADV [Compound 12 (IESDV with Ser P^-2 replaced by Ala)] was tested, and the “fold increase in Ki on Ala substitution of Ser (P^-2) in pentapeptide (7)” value [28] was 7 fold.

For IESAV [Compound 13 (IESDV with Asp P^-1 replaced by Ala)], the “fold higher Ki than CRIPT” value [9] was > 30 fold.

From patent US20160176924A1 (UNIVERSITY OF COPENHAGEN, published 2016)
